Source: article PMC8393326 (2021)

B1: Erbin-PDZ PDZ (protein)
chain: AKQEIRVRVEKDPELGFSISGGVGGRGNPFRPDDDGIFVTRVQPEGPASKLLQPGDKIIQANGYSFINIEHGQAVSLLKTFQNTVELIIVREVSS
B2: PSD95-PDZ2 155-249 (protein)
chain: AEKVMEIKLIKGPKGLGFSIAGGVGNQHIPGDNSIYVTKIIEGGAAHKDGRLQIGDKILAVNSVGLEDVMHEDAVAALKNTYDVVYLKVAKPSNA
B3: PSD95-PDZ3 302-415 (protein)
chain: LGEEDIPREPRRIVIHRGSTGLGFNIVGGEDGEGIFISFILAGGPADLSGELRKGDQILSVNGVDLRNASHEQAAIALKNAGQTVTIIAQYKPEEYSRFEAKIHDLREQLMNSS

Assays:
Test in all cases: ITC
HTLV3 Tax = HTLV3 Tax (Human T-cell leukemia virus 3)
HTLV1 Tax = biological target: T1, HTLV1 Tax (Human T-cell leukemia virus 1)
T1 chain: FRETEV

Erbin PDZ binder = biological target: T2, Erbin PDZ binder
T2 chain: TGWETWV

AdV E4 ORF1 = AdV E4 ORF1 (Human adenovirus)
ERBB4 = biological target: T3, ERBB4 (Homo sapiens)
T3 chain: HRNTVV

| Binder | Kd (HTLV3 Tax) | Kd (HTLV1 Tax) | Kd (Erbin PDZ binder) | Kd (AdV E4 ORF1) | Kd (ERBB4) |
| --- | --- | --- | --- | --- | --- |
| B1 | 23 µM | 7.8 µM | 0.24 µM | – | – |
| B2 | 20 µM | 1.5 µM | 5.7 µM | 11.5 µM | 13.9 µM |
| B3 | 43 µM | 3.8 µM | – | – | 41.6 µM |
